Ends that are not written are not given here. A value given as a limit tells only on which side of the number the result lay.

For orientation: Kd means the constant that tells how readily two partners part at equilibrium. Lower therefore signals a tighter complex.

The target of this assay is MBP-VDR-LBDmt (human). Briefly: fluorescence polarisation. A general note: Fluorescence polarisation rises when a labelled molecule tumbles more slowly, as on binding a larger partner.
C(Texas Red maleimide)AASKHKQLSELLRSGSSPN [P300 peptide, Texas Red labeled]: the Kd was greater than 20 µM.
As to C(Texas Red maleimide)QAANNSLLLHLLKSQTIPK [RIP140-5 peptide, Texas Red labeled], the Kd was less than 20 µM.
The molecule C(Texas Red maleimide)KVSQNPILTSLLQITGNGG [DRIP205-1 peptide, Texas Red labeled] displayed a Kd greater than 20 µM.

The record behind these values is publication PMC2654718 (Biochemistry, 2009).
